T1: recombinant soluble human CEA (extracellular domain, AA 1-687 of huCEA, C-terminal 6xHis) (human, UniProt P06731 35-687)
T1 construct: also called sCEA; soluble CEA
T1 sequence: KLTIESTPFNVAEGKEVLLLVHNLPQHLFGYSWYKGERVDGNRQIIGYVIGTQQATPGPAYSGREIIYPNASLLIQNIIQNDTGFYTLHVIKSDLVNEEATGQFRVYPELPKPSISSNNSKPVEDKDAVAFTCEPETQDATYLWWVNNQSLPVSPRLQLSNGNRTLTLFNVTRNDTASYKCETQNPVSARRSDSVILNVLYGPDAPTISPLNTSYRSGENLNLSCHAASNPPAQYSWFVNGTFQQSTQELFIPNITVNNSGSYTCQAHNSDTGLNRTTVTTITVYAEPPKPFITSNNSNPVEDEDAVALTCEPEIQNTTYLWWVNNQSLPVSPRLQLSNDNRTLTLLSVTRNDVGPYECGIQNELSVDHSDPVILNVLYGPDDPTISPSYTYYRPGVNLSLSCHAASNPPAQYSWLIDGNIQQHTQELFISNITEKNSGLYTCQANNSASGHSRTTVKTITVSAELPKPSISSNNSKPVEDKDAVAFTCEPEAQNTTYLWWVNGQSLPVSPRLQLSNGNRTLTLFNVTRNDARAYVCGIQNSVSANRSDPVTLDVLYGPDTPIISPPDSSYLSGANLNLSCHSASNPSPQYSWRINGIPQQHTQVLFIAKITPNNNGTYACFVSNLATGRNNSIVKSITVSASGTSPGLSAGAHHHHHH

T2: human CEA on cells (MKN45, LOVO, NCI-H2122, LS174T, CT26/CEA) (human, UniProt P06731 35-685)
T2 sequence: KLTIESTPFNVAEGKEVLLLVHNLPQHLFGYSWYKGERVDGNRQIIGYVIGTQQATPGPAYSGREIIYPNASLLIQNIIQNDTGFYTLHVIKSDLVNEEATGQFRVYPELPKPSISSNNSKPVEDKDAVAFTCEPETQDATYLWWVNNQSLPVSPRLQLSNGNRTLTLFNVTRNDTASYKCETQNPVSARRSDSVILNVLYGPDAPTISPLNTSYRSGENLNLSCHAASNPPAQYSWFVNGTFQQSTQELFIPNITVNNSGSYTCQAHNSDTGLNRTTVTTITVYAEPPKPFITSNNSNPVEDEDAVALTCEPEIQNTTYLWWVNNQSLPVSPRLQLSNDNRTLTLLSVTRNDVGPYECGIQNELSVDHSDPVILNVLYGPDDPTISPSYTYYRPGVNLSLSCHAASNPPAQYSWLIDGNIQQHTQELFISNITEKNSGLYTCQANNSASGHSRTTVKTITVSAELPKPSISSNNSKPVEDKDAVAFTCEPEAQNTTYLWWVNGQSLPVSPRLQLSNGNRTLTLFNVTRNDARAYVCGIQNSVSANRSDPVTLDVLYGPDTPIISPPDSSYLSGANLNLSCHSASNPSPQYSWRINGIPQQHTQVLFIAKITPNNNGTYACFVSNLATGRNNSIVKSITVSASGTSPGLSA

T3: chimeric construct (CHIM) (human)
T3 construct: CEACAM6 AA 1-273 joined to the membrane-peripheral region containing domain B3 of CEA (AA 596-687), C-terminal 6xHis; also called chimeric CEA
T3 chain: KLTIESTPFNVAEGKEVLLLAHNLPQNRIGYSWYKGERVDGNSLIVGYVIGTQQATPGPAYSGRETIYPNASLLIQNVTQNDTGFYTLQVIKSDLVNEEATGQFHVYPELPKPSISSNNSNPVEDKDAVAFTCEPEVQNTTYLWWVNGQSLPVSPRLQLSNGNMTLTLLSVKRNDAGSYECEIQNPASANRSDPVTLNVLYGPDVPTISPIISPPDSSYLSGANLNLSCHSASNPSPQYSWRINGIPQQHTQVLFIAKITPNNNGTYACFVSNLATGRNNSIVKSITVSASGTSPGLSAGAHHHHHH


Columns and labels:
[1] = biological target: T1, recombinant soluble human CEA …; experiment: SPR; kinetics on huCEA, IgG format
[2] = biological target: T2, human CEA on cells (MKN45, LOVO, …); experiment: cell-based or functional assay
[3] = biological target: T2, human CEA on cells (MKN45, LOVO, …); experiment: cell-based or functional assay; remark: listed apart in the source
[4] = biological target: T2, human CEA on cells (MKN45, LOVO, …); experiment: cell-based or functional assay; remark: listed apart in the source
[5] = biological target: T3, chimeric construct (CHIM); experiment: SPR; binding to CHIM
[6] = biological target: T2, human CEA on cells (MKN45, LOVO, …); experiment: flow cytometry on MKN45 cells

Row | Binder | Kd [1] [nM] | EC50, cell killing of MKN45 cells [2] [nM] | Emax, cell killing of MKN45 cells [2] | Emax, cell killing of NCI-H2122 cells [3] | EC50, cell killing of LS174T cells [4] [nM] | Emax, cell killing of LS174T cells [4] | EC50 [6] [µg/mL] | Top [6] | koff [1] [s⁻¹] | kon [1] [M⁻¹ s⁻¹] | other results
1 | BGA6710 variant K13E, Y57K (antibody, V domains shown, IgG format; both changes in the heavy chain) VH: QVQLVQSGAEVKEPGASVKVSCKASGYIFTSYYLHWVRQAPGQGLEWIGYINPQTGKTSYAQKFQGRVTMTRDTSTSTVYMELSSLRSEDTAVYYCAREYGNYNYPLDYWGQGTLVTVSS VL: DIQMTQSPSSLSASVGDRVTITCRASENQYGYLAWYQQKPGKVPKLLIYNYKNLVEGVPSRFSGSGSGTDFTLTISSLQPEDVATYYCQHHLGTPYTFGQGTKVEIK | 1.34 |  |  |  |  |  |  |  |  |  | 
2 | BGA7413 (antibody, human IgG1, kappa, V domains shown, linker-payload conjugated after reduction of the antibody, DAR 8 profile (structure only as a drawing in Table 18)) VH: QVQLVQSGAEVKKPGASVKVSCKASGYIFTSYYLHWVRQAPGQGLEWIGYINPQTGKTSYAQKFQGRVTMTRDTSTSTVYMELSSLRSEDTAVYYCAREYGNYNYPLDYWGQGTLVTVSS VL: DIQMTQSPSSLSASVGDRVTITCRASENQYGYLAWYQQKPGKVPKLLIYNYKNLVEGVPSRFSGSGSGTDFTLTISSLQPEDVATYYCQHHLGTPYTFGQGTKVEIKR |  | 0.46 | 87.2 | 81.5 | 0.88 | 66.9 |  |  |  |  | 
3 | BGA0084 (antibody, human IgG1, kappa, V domains shown, linker-payload conjugated after reduction of the antibody, DAR 8 profile (structure only as a drawing in Table 18)) VH: QVQLVQSGAEVKKPGASVKVSCKASGYIFTSYYLHWVRQAPGQGLEWIGYINPQTGKTSYAQKFQGRVTMTRDTSTSTVYMELSSLRSEDTAVYYCAREYGNYNYPLDYWGQGTLVTVSS VL: DIQMTQSPSSLSASVGDRVTITCRASENQYGYLAWYQQKPGKVPKLLIYNYKNLVEGVPSRFSGSGSGTDFTLTISSLQPEDVATYYCQHHLGTPYTFGQGTKVEIKR |  | 0.38 | 88.8 | 83.8 | 0.85 | 69.9 |  |  |  |  | EC50, cell killing of NCI-H2122 cells [3]: 0.19 nM
4 | BGA9962 (antibody, human IgG1, kappa, V domains shown, linker-payload conjugated after reduction of the antibody, DAR 8 (structure only as a drawing in Table 18)) VH: QVQLVQSGAEVKKPGASVKVSCKASGYIFTSYYLHWVRQAPGQGLEWIGYINPQTGKTSYAQKFQGRVTMTRDTSTSTVYMELSSLRSEDTAVYYCAREYGNYNYPLDYWGQGTLVTVSS VL: DIQMTQSPSSLSASVGDRVTITCRASENQYGYLAWYQQKPGKVPKLLIYNYKNLVEGVPSRFSGSGSGTDFTLTISSLQPEDVATYYCQHHLGTPYTFGQGTKVEIKR |  | 0.39 | 87.1 | 80 | 0.83 | 66.7 |  |  |  |  | EC50, cell killing of NCI-H2122 cells [3]: 0.17 nM
5 | BGA8357 (antibody, human IgG1, kappa, V domains shown, linker-payload conjugated after reduction of the antibody, DAR 8 profile (structure only as a drawing in Table 18)) VH: QVQLVQSGAEVKKPGASVKVSCKASGYIFTSYYLHWVRQAPGQGLEWIGYINPQTGKTSYAQKFQGRVTMTRDTSTSTVYMELSSLRSEDTAVYYCAREYGNYNYPLDYWGQGTLVTVSS VL: DIQMTQSPSSLSASVGDRVTITCRASENQYGYLAWYQQKPGKVPKLLIYNYKNLVEGVPSRFSGSGSGTDFTLTISSLQPEDVATYYCQHHLGTPYTFGQGTKVEIKR |  | 0.38 | 89.1 | 83.9 | 0.67 | 71.8 |  |  |  |  | EC50, cell killing of NCI-H2122 cells [3]: 0.14 nM
6 | BGA1789 (antibody, human IgG1, V domains shown, Built on the BGA7592-1F-ph-M (BGA2433) template; human IgG1/kappa) VH: QVQLVQSGAEVKKPGASVKVSCKASGYIFTSYWLHWVRQAPGQGLEWIGYINPQTGYTSYAQKFQGRVTMTRDTSTSTVYMELSSLRSEDTAVYYCAREYGNYNYPLDYWGQGTLVTVSS VL: DIQMTQSPSSLSASVGDRVTITCRASENQYGYLAWYQQKPGKVPKLLIYNYKNLVEGVPSRFSGSGSGTDFTLTISSLQPEDVATYYCQHHLGTPYTFGQGTKVEIK |  |  |  |  |  |  |  |  |  |  | Kd [5]: 14.4 nM; koff [5]: 0.000463 s⁻¹; kon [5]: 32100 M⁻¹ s⁻¹
7 | BGA6710 variant Q54E, Y57K (antibody, V domains shown, IgG format; both changes in the heavy chain) VH: QVQLVQSGAEVKKPGASVKVSCKASGYIFTSYYLHWVRQAPGQGLEWIGYINPETGKTSYAQKFQGRVTMTRDTSTSTVYMELSSLRSEDTAVYYCAREYGNYNYPLDYWGQGTLVTVSS VL: DIQMTQSPSSLSASVGDRVTITCRASENQYGYLAWYQQKPGKVPKLLIYNYKNLVEGVPSRFSGSGSGTDFTLTISSLQPEDVATYYCQHHLGTPYTFGQGTKVEIK | 2.36 |  |  |  |  |  | 0.58 | 902 | 0.00026 | 110000 | 
8 | BGA6710 variant Q54E, Y57E (antibody, V domains shown, IgG format; both changes in the heavy chain) VH: QVQLVQSGAEVKKPGASVKVSCKASGYIFTSYYLHWVRQAPGQGLEWIGYINPETGETSYAQKFQGRVTMTRDTSTSTVYMELSSLRSEDTAVYYCAREYGNYNYPLDYWGQGTLVTVSS VL: DIQMTQSPSSLSASVGDRVTITCRASENQYGYLAWYQQKPGKVPKLLIYNYKNLVEGVPSRFSGSGSGTDFTLTISSLQPEDVATYYCQHHLGTPYTFGQGTKVEIK | 2.14 |  |  |  |  |  | 0.65 | 927 | 0.00025 | 117000 | 
9 | BGA6710 variant Y57D (antibody, V domains shown, IgG format; change in the heavy chain) VH: QVQLVQSGAEVKKPGASVKVSCKASGYIFTSYYLHWVRQAPGQGLEWIGYINPQTGDTSYAQKFQGRVTMTRDTSTSTVYMELSSLRSEDTAVYYCAREYGNYNYPLDYWGQGTLVTVSS VL: DIQMTQSPSSLSASVGDRVTITCRASENQYGYLAWYQQKPGKVPKLLIYNYKNLVEGVPSRFSGSGSGTDFTLTISSLQPEDVATYYCQHHLGTPYTFGQGTKVEIK | 1.82 |  |  |  |  |  | 0.56 | 949 | 0.000195 | 107000 | 
10 | BGA6710 variant L92E, Y57K (antibody, V domains shown, IgG format) VH: QVQLVQSGAEVKKPGASVKVSCKASGYIFTSYYLHWVRQAPGQGLEWIGYINPQTGKTSYAQKFQGRVTMTRDTSTSTVYMELSSLRSEDTAVYYCAREYGNYNYPLDYWGQGTLVTVSS VL: DIQMTQSPSSLSASVGDRVTITCRASENQYGYLAWYQQKPGKVPKLLIYNYKNLVEGVPSRFSGSGSGTDFTLTISSLQPEDVATYYCQHHEGTPYTFGQGTKVEIK | 5.29 |  |  |  |  |  | 1.09 | 970 | 0.000177 | 33400 | 
11 | BGA6710 variant L92E (antibody, V domains shown, IgG format; L92E in the light chain) VH: QVQLVQSGAEVKKPGASVKVSCKASGYIFTSYYLHWVRQAPGQGLEWIGYINPQTGYTSYAQKFQGRVTMTRDTSTSTVYMELSSLRSEDTAVYYCAREYGNYNYPLDYWGQGTLVTVSS VL: DIQMTQSPSSLSASVGDRVTITCRASENQYGYLAWYQQKPGKVPKLLIYNYKNLVEGVPSRFSGSGSGTDFTLTISSLQPEDVATYYCQHHEGTPYTFGQGTKVEIK | 4.5 |  |  |  |  |  | 1.19 | 945 | 0.000188 | 41700 | 

Reference: patent US20250115677A1, “Anti-CEA Antibody Drug Conjugates and Methods of Use” (BeiGene Switzerland GmbH, priority 2022, published 2025)
